According to the supplement of paper PMC7125110:
± gives the standard error. For part of these data: This sample holds only a part of the variants without activity.

B1: glmS ribozyme (parent)
chain: AUAAAAGCGCCAGAACUACAGAAAUGUAGUUGACGAGGAGGAGGUUUAUCGAAUUUUCGGCGGAUGCCUCCAAA

Legend:
Conditions in all cases: with glucosamine-6-phosphate
glucosamine-6-phosphate [1] = variants of: B1; experiment: kcat; higher = faster cleavage; RNA array
Method in brief: (§1)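 Over ~14 h at 37 °C, tiles were imaged as glucosamine-6-phosphate (40 μM to 10 mM) in HEPES/KCl/Mg(OAc)2 buffer flowed across sequenced MiSeq chips. The chips carried barcoded ribozyme variants transcribed in situ by E. coli RNA polymerase and tracked with a hybridised Cy3 probe. After normalisation to baseline and to non-cleaving reference variants, one- or two-exponential decay fits of per-tile medians gave kobs. kcat and KM followed from weighted Michaelis–Menten fits across concentrations.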

glucosamine-6-phosphate [2] = variants of: B1; experiment: KM; higher = weaker cofactor use; RNA array
Method in brief: as §1

glucosamine-6-phosphate [3] = variants of: B1; experiment: self-cleavage kobs at 40 uM GlcN6P; higher = faster cleavage; RNA array
Method in brief: as §1

glucosamine-6-phosphate [4] = variants of: B1; experiment: self-cleavage kobs at 160 uM GlcN6P; higher = faster cleavage; RNA array
Method in brief: as §1

glucosamine-6-phosphate [5] = variants of: B1; experiment: self-cleavage kobs at 640 uM GlcN6P; higher = faster cleavage; RNA array
Method in brief: as §1

glucosamine-6-phosphate [6] = variants of: B1; experiment: self-cleavage kobs at 2500 uM GlcN6P; higher = faster cleavage; RNA array
Method in brief: as §1

glucosamine-6-phosphate [7] = variants of: B1; experiment: self-cleavage kobs at 10000 uM GlcN6P; higher = faster cleavage; RNA array
Method in brief: as §1

Variant	kcat (glucosamine-6-phosphate [1]) [s⁻¹]	KM (glucosamine-6-phosphate [2]) [µM]	self-cleavage kobs at 40 uM GlcN6P (glucosamine-6-phosphate [3]) [s⁻¹]	self-cleavage kobs at 160 uM GlcN6P (glucosamine-6-phosphate [4]) [s⁻¹]	self-cleavage kobs at 640 uM GlcN6P (glucosamine-6-phosphate [5]) [s⁻¹]	self-cleavage kobs at 2500 uM GlcN6P (glucosamine-6-phosphate [6]) [s⁻¹]	self-cleavage kobs at 10000 uM GlcN6P (glucosamine-6-phosphate [7]) [s⁻¹]
C16G	0.0106 ± 0.0035	2880 ± 1100	0.000174 ± 3.5e-06	0.000423 ± 1.5e-05	0.00182 ± 8.5e-05	0.01 ± 0.0036	0.0085 ± 0.0003
G40A G41C	0.000139 ± 2e-05				4.87e-05 ± 1.8e-05	0.000179 ± 4.9e-05	0.000123 ± 1.4e-05
A12U A15U	0.0118 ± 0.0023	1190 ± 320	0.000433 ± 4.6e-05	0.0011 ± 0.00016	0.00509 ± 0.00065	0.00905 ± 0.0015	0.00986 ± 0.0013
G13U A53U	0.00139 ± 4.1e-05	3550 ± 190		5.58e-05 ± 2e-05	0.000213 ± 3.9e-05	0.000584 ± 0.00011	0.00103 ± 0.00011
G40C G66A	0.00247 ± 0.00097		9.75e-05 ± 2.1e-05	0.000162 ± 4.5e-05	0.00111 ± 0.0003	0.00108 ± 0.00021	0.00269 ± 0.0004
G13U A64C	1.02e-05 ± 3e-06						
G41U	0.00376 ± 0.0013		0.000171 ± 1.9e-05	0.000391 ± 6.3e-05	0.00102 ± 9.3e-05	0.00263 ± 0.00015	
A53C C71G	0.00031 ± 7.7e-05	1290 ± 620		4.25e-05 ± 1.8e-05	0.000101 ± 1.6e-05	0.000182 ± 3.4e-05	0.000335 ± 7.4e-05
G63A C70A	1.85e-05 ± 4.5e-06						
C16G U45G	0.000908 ± 7.3e-05	2510 ± 380		4.29e-05 ± 1.9e-05	0.000199 ± 3.8e-05	0.000466 ± 0.00011	0.000718 ± 9.7e-05
A33U C70U	0.000127 ± 1.1e-05	2760 ± 730			3.24e-05 ± 9.8e-06	5.5e-05 ± 8.7e-06	0.0001 ± 6.7e-06
U31C U45A	0.0175 ± 0.0045	3890 ± 1200	0.000212 ± 6e-05	0.000613 ± 0.00012	0.00258 ± 0.00062	0.00783 ± 0.0016	0.0108 ± 0.004
G38U U54C	< 1e-05		< 1e-05	< 1e-05	< 1e-05		
A42C U69C	0.000251 ± 7e-05				0.000126 ± 2.7e-05	0.000165 ± 6.2e-05	0.000346 ± 0.00013
U46C C68G	5.04e-05 ± 2e-06	811 ± 200					4.62e-05 ± 1.3e-05
